Reference: the supplement of paper PMC9170038

Tested on: MS2 coat protein
Assay: apparent KD of MS2 coat protein, switch OFF state (with FMN for OFF switches, without FMN for ON switches); designed switch direction (-1 OFF switch, 1 ON switch): -1; higher = weaker reporter binding
Conditions: FMN input: 0 or 200 uM; Eterna round: R93 (includes R88 designs)
How it was run: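 Designed RNA switches were transcribed on-chip from Illumina sequencing clusters. They were then titrated with SNAP-549-labelled MS2 coat protein (twofold steps, 0.7 or 1.5 nM to 3 µM; 0.8–1.5 h to 10–20 min per step) in 100 mM Tris-HCl pH 7.5, 80 mM KCl, 4 mM MgCl2, without or with constant ligand. Apparent KD is the per-design median of normalised cluster binding-curve fits.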

Sequence	apparent KD of MS2 coat protein [nM]
AAAAAACAUGAGGAUCACCCAUGUGAGGAUAUGCAAAACUUAUAUAAAAAGGGAAAAAGUAGAAGGCACAAAAA [LROPPY Exclusion 1 - v09_water mod]	39.2
AACAGUACAGGAUAUACAUGAGGAUCACCCAUGUGAAAAUUAAGUGGCGUACCACAAAGUAGAAGGGUACUGAA [Moding Maslow Revisited (73) 26]	125
AAAAAACAUGAGGAUCACCCAUGUGAGGAUAUAGGAAAAAAAAAAAAAAAAAAAAAAACUAGAAGGCACAAAAA [Gess I got it^^]	41.7
AGUCGGCGAGGAUAUACAUGAGGAUCACCCAUGUGAGAGAAAAAGGUGAGUCAGAAAAGUAGAAGGCGCUGACA [JL Lego Mod 5]	47.4
AUCUUGUCAGGAUAUGACUACAUAAAAAAAAAAAAAUGUAGUCAGAAGGGACAUGAGGAUCACCCAUGUACCAA [HSL_Exclusion 4 64% 2]	24.1
AAAAGGUGAGGAUAUAGGAAAAUAAAAUAAAAUAAAAUAAACUAGAAGGCACAUGAGGAUCACCCAUGUAAUAA [LROPPY Exclusion 4 - v03_deltaG=3.54 break up the As]	17
AAAAAGUGAGGAUAUGAAAAUAAAAAAAACAAACAAAUAAAUCAGAAGGCACAUGAGGAUCACCCAUGUAAAAA [JR_Exc004_Sub1202]	26.2
AAGACUACAGGAUAUACAUGAGGAUCACCCAUGUAACUGACGGAUAGAUGACGGAGAAGUAGAAGGGUAGUCAA [Ruby 38]	26.4
AAAAAGGGAGGAUAUACAUGAGGAUCACCCAUGUAUCAGACGAAAAAGAGUCUGAAAAGUAGAAGGCCCAAAAA [65%, Moding Exclusion3-cac2, 6]	20.8
AACCGACAUGAGGAUCACCCAUGUAAGGAUAUGCAUCCUUCGGCCCGGACCAGAGGAAGCAGAAGGUGCAGGGA [Iscegebia]	41.2
AACAGUACAGGAUAUACAUGAGGAUCACCCAUGUGGGAAAAAAGAUCGAGAGAUCCAUGUAGAAGGGUACUGGA [JL In the Red 06]	25.6
AAAAAGCGAGGAUAUACAUGAGGAUCACCCAUGUCAAACGGUAAGACCGCAGGAAACAGUAGAAGGCGCAAAAA [Exclusion3-03]	91.1
AAAAAACAUGAGGAUCACCCAUGUAAGGAUAUGCUCAAGCGAAAAAGCACAAAAAAGAGCAGAAGGUACAAAAA [66%, Wbt, 41]	31
CACGGGUUAGGAUAUGCAUGGUGAAAAGACGCGAUCCUUAGACAUGAGGAUCACCCAUGUAGAAGGAACGCGAU [Reonisar]	15
ACCGAUCGAGGAUAUACAUGAGGAUCACCCAUGUAACCCAGAAGAAAGGCCUCAGGAUGUAGAAGGCGACGCAA [JR_Exc003_Sub406]	17.7
AAGAAGGAAGGAUAUACAUGAAAGAAAGAAAAGAAAAGAAAACAUGAGGAUCACCCAUGUAGAAGGUCCUAGAA [EteRNA is fun!]	80.5
ACCAAUGGAGGAUAUACAUGAGGAUCACCCAUGUAUAACCUACAUAGGUGAAAAAAAUGUAGAAGGCCAUUGGA [EX3 233: Super Stable 33]	16.9
AAAUGCUGAGGAUAUACAUGAGGAUCACCCAUGUAAAAUAAAUAAUGGAUGUAAACGUGUAGAAGGCAGCAUAA [Exclusion 3.14b (FMN+ favored )]	23
GUAAACCUAGGAUAUACAUGAGGAUCACCCAUGUAAAAUUUAAUAAAAAGAAAAUCAAGUAGAAGGAGGUAGAU [JR_Exc003_Sub1224]	29.3
UAAAGACAUGAGGAUCACCCAUGUGAGGAUAUCGGAGAUGACGGAACAUCAAGUUCGGCGAGAAGGCGCAGGAA [JR_Exc001_Sub406]	30.7
AAAAAACAUGAGGAUCACCCAUGUGAGGAUAUGCAAAACCCAUAUAAAAAGGGAAAAAGUAGAAGGCACAAAAA [wbt round 1 mod 10]	28.6
AGAAACGUAGGAUAUACAUGAGGAUCACCCAUGUAAAGAAAGAAGGGAGAAAGAAGAAGUAGAAGGACGAAGAA [JR_Exc003_Sub003]	59.9
AACUGACAUGAGGAUCACCCAUGUCAGGAUAUGACUUGACGAAAAAAAACACGUCAUGUCAGAAGGGACAUGAA [Design 88: Sub-opt YB]	16.9

Sequence	apparent KD of MS2 coat protein [nM]
CUCAAGUAAGGAUAUCCAAGAAAAGAAGAGAAAGAAAAGAAGGAGAAGGUACAUGAGGAUCACCCAUGUAAGAA [EteRNA is fun!]	23.7
AACUCGUCAGGAUAUGCGCACAGAUAAUACGCUACACAAAUGCAGAAGGGACAUGAGGAUCACCCAUGUAAAUA [JR_Exc004_Sub504]	31.2
AAAAAGCGAGGAUAUACAUGAGGAUCACCCAUGUAAAAGGUCGCGGGAGGGAGGGAAGGUAGAAGGCGCAAAAA [Excls3-VI]	14.1
AACAAAUGAGGAUAUACAAACAAAAAAAACAAACAAAACAAACAUGAGGAUCACCCAUGUAGAAGGCAUAAACA [JR_Exc002_Sub901]	24.5
GGAACACAUGAGGAUCACCCAUGUCAGGAUAUGUAGAUAAAAAGAAAAUAAAAUAAAAGCAGAAGGGACAAAAG [May 4]	44.5
AAAAAGGGAGGAUAUACAUGAGGAUCACCCAUGUGAAAGACGAAAAAGAGUCUAAAGGGUAGAAGGCCCAAAAA [65%, Moding Exclusion3-cac2, 10]	49.2
AGUCGGCGAGGAUAUACAUGAGGAUCACCCAUGUGAGAGAAUAAAGUGAGUUAGACAAGUAGAAGGCGCUGACA [JL Lego Mod 10]	226
GAAAAGGUAGGAUAUACGAAAAAAAAGGGUAGAAAAAAAACACAUGAGGAUCACCCAUGUAGAAGGACCAAAAG [Mat - Exclusion 2 - Tesla mod - D30]	602
AGUCAGAGAGGAUAUACAUAGGAAAAAAAAGUAAGAUCCCUACAUGAGGAUCACCCAUGUAGAAGGCUCUGACA [Ex2 Design 140: Sub-opt 4]	87.5
AGUCGGCGAGGAUAUACAUGAGGAUCACCCAUGUGAGAGAAAAAAGUGAGCAAGAAAUGUAGAAGGCGCUGACA [JL Lego Mod 3]	61.9
AAGUCGUUAGGAUAUAUAUGGAUAUACAUUUAUGUAGAACUACAUGAGGAUCACCCAUGUAGAAGGAACGAAUA [AJ 56]	27.9
AGAAAGUGAGGAUAUACGAAACCAGCCUAAAUGGCUGGAAAGUAGAAGGCACAUGAGGAUCACCCAUGUAAAGA [Ex4 sub 1]	43.4
AGCUAGUCAGGAUAUACGAACAUGUCAAAAGACGUGAAGAAACAUGAGGAUCACCCAUGUAGAAGGGACUAGCA [Mat - Exclusion 2 - JL-Eli mod - D50]	12.4
AAAAAACAUGAGGAUCACCCAUGUCAGGAUAUGCUCAGCAAAAAAAAAAAAAAGAACGGUAGAAGGGACAGAAA [Bilbo Confounded 22 - Jieux - Exclusion 1]	50.7
GCUGGCCAAGGAUAUACAUGAGGAUCACCCAUGUGAGAGAAAAAAGUGAGAAAGAAAAGUAGAAGGUGGUUAGG [salish99-ex3-114]	41
AUGGUACAUGAGGAUCACCCAUGUCAGGAUAUCGGCUGUGACAUGAAAAAAAUGUUAGUGAGAAGGGACUGUAA [EX1 Malc#18 Mod 4 - Jieux - Exclusion 1]	102
GAAGAACAUGAGGAUCACCCAUGUCAGGAUAUGAGCAAGGGAAUAAUAACUUGCGGAAUCAGAAGGGACAAGAA [Ex 1 May 51]	43.6
AUAAACAGAGGAUAUACACAAAAUAAAGAAAAUAAAGAAACACAUGAGGAUCACCCAUGUAGAAGGCUGGAAAA	22.7
GAAAGGGCAGGAUAUGCGGAGAGAGAGAGAGAGAGAGAGAGACAUGAGGAUCACCCAUGUAGAAGGGCCGAAAG [salish99-ex2-08]	38.6
AGGAAACAUGAGGAUCACCCAUGUAAGGAUAUGAACGAAAUAAAAUAAAAAUAAAAGUUCAGAAGGUACAAAAA [Mat - Exclusion 1 - Eli mod - D8]	39.3
CUCUAGUCAGGAUAUCCAAGAAAAGAAGAGAAAGAAAAGAAGGAGAAGGGACAUGAGGAUCACCCAUGUAAGAA [EteRNA is fun!]	46.4
AAGAAGUGAGGAUAUGUAUCAGUAUAGUUGCCUAUACUGAUGUAGAAGGCACAUGAGGAUCACCCAUGUCCUAA [Exclusion4-cac1]	30.8
